The values below come from doi:10.1101/2022.11.04.515266.

The target in experiment [1] is Sinorhizobium meliloti Clr, C-terminally His6-tagged (Sinorhizobium meliloti). Nature of the experiment: SEC. In general terms: SEC sorts molecules by how far they enter the pores of the column.
For experiment [2] the target is unchanged. Nature of the experiment: crystal structure.

A word on the stoichiometry N: it is the number of molecules, sites or subunits per partner or assembly. For the substance “Sinorhizobium meliloti Clr, C-terminally His6-tagged (natural protein)”, the percent in the monomeric state (monomer-dimer equilibrium) in experiment [1] was determined as 86%. Moreover, the stoichiometry N in experiment [2] stood at 2.
